Assay results: patent US20260159591A1 (FIBROCOR THERAPEUTICS, published 2026)

T1: murine ITGA11 expressed in CHO cells (murine, UniProt P61622 23-1188)
T1 construct: whole, on cells; Only the alpha chain is named for these cells; also called mouse ITGA11; CHO cells expressing murine ITGA11
T1 sequence (looked up): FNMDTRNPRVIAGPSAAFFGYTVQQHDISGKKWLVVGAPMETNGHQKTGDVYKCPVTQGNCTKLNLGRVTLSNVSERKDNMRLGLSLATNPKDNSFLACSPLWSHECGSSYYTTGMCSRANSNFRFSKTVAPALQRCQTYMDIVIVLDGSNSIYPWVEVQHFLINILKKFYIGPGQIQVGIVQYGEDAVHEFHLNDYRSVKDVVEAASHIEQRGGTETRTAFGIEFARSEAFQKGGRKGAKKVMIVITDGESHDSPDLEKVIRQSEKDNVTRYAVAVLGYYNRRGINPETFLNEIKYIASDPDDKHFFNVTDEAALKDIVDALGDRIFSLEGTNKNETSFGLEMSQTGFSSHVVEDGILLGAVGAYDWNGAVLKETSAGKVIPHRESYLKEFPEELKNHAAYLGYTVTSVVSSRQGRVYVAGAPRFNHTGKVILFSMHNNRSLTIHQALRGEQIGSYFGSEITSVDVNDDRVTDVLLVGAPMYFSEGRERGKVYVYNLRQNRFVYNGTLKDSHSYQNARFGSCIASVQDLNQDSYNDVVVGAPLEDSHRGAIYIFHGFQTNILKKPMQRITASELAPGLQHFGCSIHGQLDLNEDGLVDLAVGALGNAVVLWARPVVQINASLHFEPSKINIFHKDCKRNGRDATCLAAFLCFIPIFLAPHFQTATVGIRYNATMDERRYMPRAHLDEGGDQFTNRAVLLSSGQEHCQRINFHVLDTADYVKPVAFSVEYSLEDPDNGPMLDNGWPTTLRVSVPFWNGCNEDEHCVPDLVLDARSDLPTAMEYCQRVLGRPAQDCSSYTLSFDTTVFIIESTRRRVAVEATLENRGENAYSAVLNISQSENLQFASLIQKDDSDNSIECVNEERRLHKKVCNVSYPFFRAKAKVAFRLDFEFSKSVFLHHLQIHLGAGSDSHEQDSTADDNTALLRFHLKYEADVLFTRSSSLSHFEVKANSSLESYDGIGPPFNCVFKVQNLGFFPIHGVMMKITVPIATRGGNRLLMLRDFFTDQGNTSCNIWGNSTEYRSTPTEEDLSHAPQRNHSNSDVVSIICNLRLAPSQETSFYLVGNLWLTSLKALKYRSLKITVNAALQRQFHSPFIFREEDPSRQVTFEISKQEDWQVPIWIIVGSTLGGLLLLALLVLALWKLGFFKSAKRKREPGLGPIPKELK

T2: human ITGA11 expressed in mouse C2C12 cells (human, UniProt Q9UKX5 23-1188)
T2 construct: whole, on cells; also called integrin α11; C2C12 cells expressing human ITGA11
T2 sequence (looked up): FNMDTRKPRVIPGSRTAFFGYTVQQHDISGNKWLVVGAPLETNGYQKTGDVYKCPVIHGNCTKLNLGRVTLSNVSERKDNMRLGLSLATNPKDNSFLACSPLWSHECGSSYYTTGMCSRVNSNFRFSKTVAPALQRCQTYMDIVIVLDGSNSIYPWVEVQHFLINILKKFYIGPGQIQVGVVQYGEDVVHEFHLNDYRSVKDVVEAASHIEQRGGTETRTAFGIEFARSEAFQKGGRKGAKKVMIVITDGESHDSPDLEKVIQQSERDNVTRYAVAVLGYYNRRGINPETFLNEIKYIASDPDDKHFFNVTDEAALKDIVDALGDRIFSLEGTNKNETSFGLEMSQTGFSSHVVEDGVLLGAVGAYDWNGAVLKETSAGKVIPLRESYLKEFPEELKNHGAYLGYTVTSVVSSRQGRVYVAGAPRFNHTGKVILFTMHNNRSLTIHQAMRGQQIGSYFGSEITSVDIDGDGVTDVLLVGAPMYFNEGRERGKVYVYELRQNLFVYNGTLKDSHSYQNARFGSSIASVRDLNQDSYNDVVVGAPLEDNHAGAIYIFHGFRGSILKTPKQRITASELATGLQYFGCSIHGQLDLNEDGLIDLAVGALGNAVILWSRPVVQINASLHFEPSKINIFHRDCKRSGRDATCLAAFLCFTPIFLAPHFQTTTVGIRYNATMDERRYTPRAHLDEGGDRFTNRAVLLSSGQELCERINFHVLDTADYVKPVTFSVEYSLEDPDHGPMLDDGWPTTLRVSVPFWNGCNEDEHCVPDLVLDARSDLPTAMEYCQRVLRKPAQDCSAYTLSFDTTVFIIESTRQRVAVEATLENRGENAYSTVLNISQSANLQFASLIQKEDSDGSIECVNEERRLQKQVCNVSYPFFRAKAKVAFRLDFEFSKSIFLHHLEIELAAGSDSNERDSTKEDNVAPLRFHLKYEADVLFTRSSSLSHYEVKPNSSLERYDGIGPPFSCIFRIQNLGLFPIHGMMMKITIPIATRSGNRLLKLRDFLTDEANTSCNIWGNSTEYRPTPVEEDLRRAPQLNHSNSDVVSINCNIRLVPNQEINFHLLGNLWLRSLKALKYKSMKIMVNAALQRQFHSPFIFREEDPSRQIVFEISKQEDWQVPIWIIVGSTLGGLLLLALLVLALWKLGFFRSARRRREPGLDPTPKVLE


What was measured:
[1] = biological target: T1, murine ITGA11 expressed in CHO cells; assay: flow cytometry, 34 nM antibody on CHO cells expressing murine ITGA11
Description: (§1) Antibody binding to C2C12 cells expressing human ITGA11 or CHO cells expressing murine ITGA11 was performed by incubating the cells with the antibodies at a concentration of 34 nM for 1 hour at 4° C. in binding medium (PBS, 10% normal goat serum, 2% rabbit serum, and 1% BSA). Cells were washed in binding medium and binding was detected using goat-anti-human Fc BV421 (Jackson ImmunoLabs). After washing the cells were resuspended in binding medium and binding was assessed by flow cytometry. 226 antibodies were screened and the binding characteristics of 10 antibodies are presented below. The results are provided in Table 2 and are expressed as mean fluorescence intensity (MFI).

[2] = biological target: T2, human ITGA11 expressed in mouse C2C12 …; assay: flow cytometry, 34 nM antibody on C2C12 cells expressing human ITGA11
Description: as §1

MFI [1] [MFI]	MFI [2] [MFI]	Binder
8570	10600	mAb FIB-918-10 (antibody, human IgG4, V domains shown) VH: not shown VL: AIQLTQSPSTLSASVGDRVTITCRASQGINDFLAWYQQKPGKAPKLLIYAASSLQSGVPSRFSGSGSGTDFTLTISSLQPEDFATYYCQQSYSTPLTFGGGTKVEIKR
4570	15700	mAb FIB-918-4 (antibody, human IgG4, V domains shown) VH: QVQLVQSGAEVKKPGATVKISCKVSGYTFTDYYMHWVRQAPGKGLEWMGGFDPEDGETIYAQKFQGRVTMTEDTSTDTAYMELSSLRSEDTAVYYCATLDYRGVVYFDYWGQGTLVTVSS VL: NFMLTQPHSVSDSPGKTVTISCTGSSGSIASNYVQWYQQRPGSAPTTVIYEDKRRPSGVPDRFIGSIDSSSNSASLTISGLRTEDEADYYCQSYDSSNHWVFGGGTQLTVLG
1520	5220	mAb FIB-918-3 (antibody, human IgG4, V domains shown) VH: EVQLVESGGGLVQPGGSLRLSCAASGFTFSSYSMNWVRQAPGKGLEWVSYISSSSSTIYYADSVKGRFTISRDNAKNSLYLQMNSLRAEDTAVYYCARGPDLSDYFDYWGRGTLVTVSS VL: not shown
12600	30400	mAb FIB-918-2 (antibody, human IgG4, V domains shown) VH: not shown VL: NIQMTQSPSSLSASVGDRVTITCRASQTIGSYLNWYQQKPGTAPKLLIYGASTSHTWVPSRFTGGGSGTEFTLTISSLQSEDFATYYCQQSYSTPFTFGGGTKLEIKR

Further lines, the binder ahead of its results:

Binder	MFI [1] [MFI]	MFI [2] [MFI]
mAb FIB-918-8 (antibody, V domains shown) VH: EVQLVESGGGVVRPGGPLRLSCAASGFTFSNAWMSWVRQAPGKGLEWVSAISGSGGSTYYADSVKGRFTISRDNSKNTLYLQMNSLRAEDTAIYYCAKQTVTSADDYFDYWGQGTLVTVSS VL: not shown	32900	41500
mAb FIB-918-9 (antibody, V domains shown) VH: EVQLVESGGGLVQPGGSLRLSCLASGFTFSDYWMAWVRQAPGKGLEWVSAISGSGGSTYYADSVKGRFTISRDNSKNTLYLQMNSLRAEDTAVYYCAKDLLWAARDAFDIWGQGTLVTVSS VL: not shown	2030	1450
mAb FIB-918-6 (antibody, V domains shown) VH: EVQLLESGGDLVKAGGSLRLSCAASGFTFSNAWMSWVRQAPGKGLEWVSGISGSGGSTYYADSVKGRFTISRDNSKNTLYLQMNSLRAEDTAVYYCARDRGYSYSETSNDAFDIWGRGTLVTVSS VL: not shown	9410	7880
mAb FIB-918-7 (antibody, human IgG4, V domains shown) VH: EVQLVESGGGLVQPGGSLRLSCAASGFMFDTHAMSWVRQAPGKGLEWVSSISGSGGSIYYADSVKGRFTISRDNSKNTLYLQMNSLRAEDTAVYYCARSGETAGTDYFDYWGQGTLVTVSS VL: EIVMTQSPATLSLSPGERATLSCRASQSVSSSYLSWYQQKPGQAPRLLIYGASTRATGIPARFSGSGSGTDFTLTISSLQPEDFAVYYCQQDYNSPYTFGQGTKVDIKR	21300	7870
